Fold stimulation of RecQ helicase activity by SSBΔC1, Fold stimulation of RecQ helicase activity by SSB-mixed and Fold stimulation of RecQ helicase activity by SSB113 data for one substance are collected here from PMC2735845.

In assay [1] the target is E. coli SSBΔC1 (SSB lacking its C-terminal-most residue) (E. coli) (UniProt P0AGE0).
Assay [2] deals with E. coli SSB-mixed (E. coli) (UniProt P0AGE0).
The target in a further assay is E. coli SSB113 (E. coli) (UniProt P0AGE0).

Substance “E. coli RecQ (wild type, full-length, hexahistidine-tagged) (from UniProt P15043 1-609) (enzyme)” showed a Fold stimulation of RecQ helicase activity by SSBΔC1 in assay [1] of 0.6 fold. This substance registered a Fold stimulation of RecQ helicase activity by SSB-mixed in assay [2] of 0.7 fold. For the same substance, in the assay with E. coli SSB113 (E. coli), the Fold stimulation of RecQ helicase activity by SSB113 came to 0.9 fold.
